Experimental data taken from paper PMC5424160, “Menin enhances c-Myc-mediated transcription to promote cancer progression” (Nature Communications, 2017).

Target: T1, GST-CycT1 (UniProt O60563 1-726)
T1 construct: Cyclin T1, cDNA cloned into pGEX-4T-1; also called GST fused CycT1 protein; source: Escherichia coli (DE3), purified
Experiment: pull-down; GST pull-down: purified GST fused protein as bait and purified His-tag protein; pull-down buffer 150 mM NaCl, 50 mM Tris pH 7.5, 0.1% NP-40, 5 mM DTT; western blot
Settings: both partners purified

T1 sequence (O60563 whole entry, the tested form may be a part): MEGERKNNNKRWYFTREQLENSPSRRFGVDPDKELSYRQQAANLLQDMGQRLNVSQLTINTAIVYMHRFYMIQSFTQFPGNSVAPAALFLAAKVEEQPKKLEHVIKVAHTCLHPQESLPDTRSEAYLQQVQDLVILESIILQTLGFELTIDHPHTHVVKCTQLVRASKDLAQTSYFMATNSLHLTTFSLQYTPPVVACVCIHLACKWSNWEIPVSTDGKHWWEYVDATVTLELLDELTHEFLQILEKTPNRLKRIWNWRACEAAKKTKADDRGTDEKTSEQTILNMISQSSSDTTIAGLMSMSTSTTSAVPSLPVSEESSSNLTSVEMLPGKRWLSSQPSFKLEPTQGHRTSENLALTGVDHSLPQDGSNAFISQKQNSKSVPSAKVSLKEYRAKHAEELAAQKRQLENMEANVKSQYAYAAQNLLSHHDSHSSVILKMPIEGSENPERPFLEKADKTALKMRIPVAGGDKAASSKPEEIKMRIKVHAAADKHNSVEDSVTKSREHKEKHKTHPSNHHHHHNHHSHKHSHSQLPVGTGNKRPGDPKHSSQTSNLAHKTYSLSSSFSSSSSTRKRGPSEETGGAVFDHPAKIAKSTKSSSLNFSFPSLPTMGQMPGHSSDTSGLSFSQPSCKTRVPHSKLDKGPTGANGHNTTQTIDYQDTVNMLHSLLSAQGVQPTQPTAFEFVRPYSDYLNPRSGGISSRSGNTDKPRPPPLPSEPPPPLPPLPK

binding result: binds
B1: His-Menin (natural protein, UniProt O00255 1-610, looked up)
chain: MGLKAAQKTLFPLRSIDDVVRLFAAELGREEPDLVLLSLVLGFVEHFLAVNRVIPTNVPELTFQPSPAPDPPGGLTYFPVADLSIIAALYARFTAQIRGAVDLSLYPREGGVSSRELVKKVSDVIWNSLSRSYFKDRAHIQSLFSFITGTKLDSSGVAFAVVGACQALGLRDVHLALSEDHAWVVFGPNGEQTAEVTWHGKGNEDRRGQTVNAGVAERSWLYLKGSYMRCDRKMEVAFMVCAINPSIDLHTDSLELLQLQQKLLWLLYDLGHLERYPMALGNLADLEELEPTPGRPDPLTLYHKGIASAKTYYRDEHIYPYMYLAGYHCRNRNVREALQAWADTATVIQDYNYCREDEEIYKEFFEVANDVIPNLLKEAASLLEAGEERPGEQSQGTQSQGSALQDPECFAHLLRFYDGICKWEEGSPTPVLHVGWATFLVQSLGRFEGQVRQKVRIVSREAEAAEAEEPWGEEAREGRRRGPRRESKPEEPPPPKKPALDKGLGTGQGAVSGPPRKPPGTVAGTARGPEGGSTAQVPAPTASPPPEGPVLTFQSEKMKGMKELLVATKINSSAIKLQLTAQSQVQMKKQKVSTPSDYTLSFLKRQRKGL
notes: Menin, MEN1 cDNA cloned into pET-22b (+); also called His-tagged Menin protein; recombinant His-Menin protein; source: Escherichia coli (DE3), purified
